Measurements from patent US20100183640A1.

Target: purified human fibronectin (hFn), from human plasma (human) (UniProt P02751)
Experiment: cell-based or functional assay

% Inhibition of adhesion of NIH-3T3 cells to hFn-coated wells (50 ng rhUG): 54%
Percent Inhibition of cellular adhesion to fibronectin, Hela cell line (50 ng): -5%
Percent Inhibition of cellular adhesion to fibronectin, NIH-3T3 cell line (50 ng): 54%
B1: recombinant human uteroglobin (ligand)
chain: EICPSFQRVIETLLMDTPSSYEAAMELFSPDQDMREAGAQLKKLVDTLPQKPRESIIKLMEKIAQSSLCN
